One assay addresses T1, HLA-A0201 (human).
T1 construct: MHC class I molecule on T2 cells; also called HLA-A2.1; HLA 0201
The experiment in a line: T2 cell HLA stabilization assay, flow cytometry. The method, then:
T2 cells (TAP″, HLA-A0201⁺) were incubated overnight at 27° C. at a concentration of 1×10⁶ cells/ml in FCS-free RPMI medium supplemented with 5 μg/ml human β₂m (Sigma, St Louis, Mo.) in the absence (negative control) or presence of either a positive reference tyrosinase peptide or test peptides at various final concentrations (50, 10, 1, and 0.1 micrograms (μg)/ml). Following a 4-hour incubation with 5 μg/ml brefeldin A (Sigma), T2 cells were labeled for 30 minutes at 4° C. with a saturating concentration of anti-HLA-A2.1 (BB7.2) mAb, then washed twice. Cells were then incubated for 30 minutes, 4° C. with a saturating concentration of FITC-conjugated goat IgG F(ab′)2 anti-mouse Ig (Caltag, San Francisco, Calif.), washed twice, fixed in PBS/1% paraformaldehyde and analyzed using a FACS Calibur® cytofluorometer (Becton Dickinson, Immunocytometry Systems, San Jose, Calif.).
The mean intensity of fluorescence (MIF) observed for each peptide concentration (after dividing by the MIF in the absence of peptide) was used as an indication of peptide binding and expressed as a “fluorescence index.” Stabilization assays were performed similarly. Following initial evaluation of peptide binding at time 0, cells were washed in RPMI complete medium to remove free peptides and incubated in the continuous presence of 0.5 μg/ml brefeldin-A for 2, 4, 6 or 8 hours.

Another assay addresses T2, HLA-A0301 (human).
T2 construct: MHC class I molecule on Raji HLA-A0301 cells
The experiment in a line: stabilization assay on Raji HLA-A0301 cells.

Turning to YMFPNAPYL [WT-1 A1 (ANALOGUE)], in the assay with HLA-A0201, the binding result is listed as “binds”.
In the case of RMFPNAPYL [WT-1 A (native)], the binding result with HLA-A0201 is given as “binds”.
With YLGATLKGV [WT-1 D1 (ANALOGUE)], the binding result in the assay with HLA-A0201 was “binds”.
Regarding NLGATLKGV [WT-1 D (native)], the binding result with HLA-A0201 was “binds”.
For QMNLGATLK [A3 WT-1 B (native)], the binding result in the assay with HLA-A0301 is “binds”.
For the molecule QMNLGVTLK [A3WT-1 B2 (ANALOGUE)], the binding result in the assay with HLA-A0301 is given as “binds”.
Turning to QMYLGVTLK [A3WT-1 B3 (ANALOGUE)], in the assay with HLA-A0301, the binding result is given as “binds”.
On to QMYLGATLK [A3WT-1 B1 (ANALOGUE)], for which, in the assay with HLA-A0301, the binding result was “binds”.
For the molecule YLLPAVPSL [WT-1 C1 (ANALOGUE)], the binding result with HLA-A0201 is “binds”.
ALLPAVPSL [WT-1 C (native)]: the binding result with HLA-A0201 is “binds”.
Regarding FMCAYPGCNK [A3WT-1 C (native)], the binding result with HLA-A0301 is “binds”.
Turning to FMCAYPFCNK [A3 WT-1 C2 (ANALOGUE)], in the assay with HLA-A0301, the binding result is recorded as “binds”.
Regarding FMYAYPFCNK [A3 WT-1 C3 (ANALOGUE)], in the assay with HLA-A0301, the binding result is given as “binds”.
As to FMYAYPGCNK [A3WT-1 C1 (ANALOGUE)], the binding result with HLA-A0301 is “binds”.
As to KLSHLQMHSR [A3WT-1 D (native)], the binding result in the assay with HLA-A0301 was “binds”.
In the case of KLYHLQMHSK [A3 WT-1 D3 (ANALOGUE)], the binding result with HLA-A0301 is “binds”.
Still for that read-out and setting: to KLYHLQMHSR [A3WT-1 D1 (ANALOGUE)] belongs “binds”; to KLSHLQMHSK [A3 WT-1 D2 (ANALOGUE)], “binds”; to NMHQRNMTK [A3 WT-1 A (native)], “binds”.
Still for that read-out and setting: to NMYQRNMTK [A3 WT-1 A1 (ANALOGUE)] belongs “binds”; to NMHQRVMTK [A3WT-1 A2 (ANALOGUE)], “binds”; to NMYQRVMTK [A3 WT-1 A3 (ANALOGUE)], “binds”.
On to YLGEQQYSV [WT-1 B1 (ANALOGUE)], for which the binding result with HLA-A0201 is listed as “binds”.
In the case of SLGEQQYSV [WT-1 B (native)], the binding result with HLA-A0201 was “binds”.
